In series [1] the target is T1, Pla1 poly(A) polymerase wild-type (Schizosaccharomyces pombe (fission …, UniProt Q10295 1-566)).
T1 sequence: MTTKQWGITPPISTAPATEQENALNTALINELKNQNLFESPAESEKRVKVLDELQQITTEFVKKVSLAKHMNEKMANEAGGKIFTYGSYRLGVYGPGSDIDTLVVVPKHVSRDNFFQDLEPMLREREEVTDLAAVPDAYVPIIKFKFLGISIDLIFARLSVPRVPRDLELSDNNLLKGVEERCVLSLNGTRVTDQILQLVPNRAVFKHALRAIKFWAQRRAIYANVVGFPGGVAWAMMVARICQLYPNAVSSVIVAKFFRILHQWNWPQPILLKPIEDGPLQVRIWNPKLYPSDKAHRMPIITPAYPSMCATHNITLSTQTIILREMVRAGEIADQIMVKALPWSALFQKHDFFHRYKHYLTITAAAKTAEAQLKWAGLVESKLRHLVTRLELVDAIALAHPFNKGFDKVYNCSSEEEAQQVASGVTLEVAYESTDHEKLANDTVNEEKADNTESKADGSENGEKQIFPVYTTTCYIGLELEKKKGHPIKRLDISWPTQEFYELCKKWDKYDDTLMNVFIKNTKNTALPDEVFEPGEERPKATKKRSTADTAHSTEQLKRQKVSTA
Description: fluorescence polarization.

The next series addresses T2, Pla1-Y86D (Schizosaccharomyces pombe (fission …, UniProt Q10295 1-566, Y86D)).
T2 sequence: T1 sequence with Y86D
As to the kind of experiment: fluorescence polarization.

Residue numbers refer to the chain shown, from its start.

For UUUCUGUGGCUA (ssRNA) [12-mer RNA primer], the Kd in series [1] was ~456 nM. Also, the binding result with Pla1-Y86D is “no binding”.

The record behind these values is article PMC10578478.
